Here are results for two substances from patent US20040161739A1.

For experiment [1], the target named is IL-8A interleukin receptor (UniProt P25024). As to the kind of experiment: cell-based or functional assay.
The target of experiment [2] is active human CCR5 chemokine receptor (human) (UniProt P51681). As to the kind of experiment: cell-based or functional assay.
UniProt P51681, sequence (P51681 whole entry): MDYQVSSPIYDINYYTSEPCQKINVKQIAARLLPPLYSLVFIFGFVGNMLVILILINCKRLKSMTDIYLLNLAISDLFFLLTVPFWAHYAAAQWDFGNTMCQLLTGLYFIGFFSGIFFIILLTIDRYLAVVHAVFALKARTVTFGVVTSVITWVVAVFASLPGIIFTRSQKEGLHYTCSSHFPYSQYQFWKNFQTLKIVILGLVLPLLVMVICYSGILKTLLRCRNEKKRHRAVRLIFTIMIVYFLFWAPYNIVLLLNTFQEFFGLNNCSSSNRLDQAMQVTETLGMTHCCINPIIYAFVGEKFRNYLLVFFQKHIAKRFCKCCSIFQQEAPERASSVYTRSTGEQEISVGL

With “recombinant human IL-8 (Interleukin 8) (from UniProt P10145 28-99) (ligand)”, the increase in metabolic activity (microphysiometer) in experiment [1] stood at 160%. In experiment [2], “recombinant human MIP-1α (Macrophage Inflammatory Protein 1 α) (from UniProt P10147 27-92) (ligand)” showed an EC50 of the acidification response (microphysiometer) of 3 nM and an acidification rate at 30 nM, percent of baseline level (% of baseline level) of 156.
